Results from patent US20260139017A1, “COMPOSITIONS AND METHODS USING REELIN IN ALZHEIMER'S DISEASE” (The General Hospital Corporation, priority 2022, published 2026).

Legend:
[1] = test system: pTau S396; experiment: Intraperitoneal mini-RELN in MAPT P301S Tau Tg mice, pTau S396 immunofluorescence; assay type: in vivo; conditions: 6 months old female MAPT P301S mice, intraperitoneal days 1-4, hippocampal and entorhinal regions, vs PBS
Method: The effects of systemic delivery of mini-RELN peptides was evaluated in vivo. 6 months old female MAPT P301S Tau Tg mice were injected intraperitoneally on day 1 with 500 μL and on day 2-4 with 250 μL solutions of either vehicle (PBS) or mini-RELN peptides. On Day 5, mice were euthanized with saturating concentration CO2 gas and intracardially perfused with 4% PFA. Brains were subsequently harvested and used for histological analyses.
Immunofluorescence staining of murine brains was performed as follows. 24 hours post fixation with 4% PFA at 4° C., sagittal brain sections were obtained at 1 mm thickness using a stainless-steel brain matrix. The entorhinal-hippocampal section of each brain was chosen for Clarity using Binaree® Tissue Clearing™ Kit (HRTC-012) following the kit guidelines. Sections were incubated with pTauS396 primary antibody for 72 h followed by secondary antibody: Alexa 647, and DAPI for 1 h. Subsequently, sections were imaged using confocal SP8 microscope for quantification. Fourteen images were taken at 63× magnification per group. Fluorescence intensity of pTau was quantified automatically using Matlab (2021a). Otsu's thresholding method was used to get a mask of the image signal and then the mean intensity of the signal was computed.

[2] = test system: pDAB1 (Tyr232); experiment: HRECs treated 5 minutes with recombinant mini-RELN, pDAB1 western blot; assay type: cell-based, human
Outline: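 Serum-starved (2 h) HRECs at passage 7 given recombinant mini-RELN constructs or mouse Reelin at 4 ug/mL for 5 min, then lysed. Western blot of 3.5 ug lysate for pDAB1 (Tyr232) with IR detection. Value is pDAB1:total protein band ratio normalized to control.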

[3] = test system: pDAB1; experiment: Trans-nasal (MIND) delivery of mini-RELN in mice, brain pDAB1 western blot; assay type: in vivo; conditions: WT male mice, 72 h post-trans-nasal delivery
From the text: We used a MIND procure (trans nasal delivery using Minimally Invasive Nasal Depot (MIND), Padmakumar et al., J Control Release. 2021 Mar. 10; 331: 176-186) or intraperitoneal injection to administer miniRELN constructs into mice. MIND leverages the olfactory nerve to bypass the blood brain barrier. […] Using the MIND methodology provides one method of reaching the entorhinal cortex with minimal systemic exposure. […] (Jackson Laboratory) were housed under regular light/night cycle. All procedures were conducted under approved IACUC animal protocols. Prior to incision, the nasal region was shaved and cleaned using betadine and 70% alcohol and mouse subcutaneously injected with buprenorphine HCl and meloxicam (5 mg/kg). The nasal cavity was then opened using a scalped and nasal mucosa exposed using a microdrill. Once the mucosa was exposed, gel dispersion of either PBS or mini-RELN constructs (Innovagen) in 20% Pluronic (Sigma Aldrich) was subcutaneously delivered in the surgically-generated pocket. Mice were injected with meloxicam for 3 days prior euthanasia at day 4 to collect the brain tissue used for post-mortem analysis.
Western blotting was performed as follows. 20 ug protein homogenates were prepared under reducing and denaturing conditions using Laemmli buffer enriched with 10 mM DTT and 5 min boiling. Samples were electrophoretically separated in a 4-20% Gel at 90V and protein transferred to a PVDF membrane using iBlot™ 2 Dry Blotting System. The membrane was blocked using Intercept® (TBS) Blocking Buffer for 2 hours. We detected pDAB1 (Tyr232; 1:1000, rabbit, #3325 Cell signaling), and Beta actin (1:5000, mouse, #66009-1-Ig, Proteintech). Antibodies were diluted using Intercept® (TBS) Blocking Buffer and incubated overnight at 4C under gentle shaking. Prior secondary antibody incubation, membranes were washes 2 times using TBS-T for 10 minutes. As secondary antibodies we used IR Dye 800n CW Goat-anti-Rabbit (925-32211, Licor) and IR Dye 680 CW Goat-anti-Mouse (925-68070, Licor) both diluted 1:10000 in blocking buffer for 1 h at room temperature under gentle shaking. Membranes were washed three times with TBS-T prior IR detection using Odyssey imager. To quantify the results, each band was quantified using ImageJ and data expressed as pDAB1:βActin ratio normalized to the control.

B1: RAP-FcIgG-CTRH3447R (protein)
chain: MYRMQLLSCIALSLALVTNSMAPRRVRSFLRGLPALLLLLLFLGPWPAASHGGKYSREKNQPKPSPKRESGEEFRMEKLNQLWEKAQRLHLPPVRLAELHADLKIQERDELAWKKLKLDGLDEDGEKEARLIRNLNVILAKYGLDGKKDARQVTSNSLSGTQEDGLDDPRLEKLWHKAKTSGKFSGEELDKLWREFLHHKEKVHEYNVLLETLSRTEEIHENVISPSDLSDIKGSVLHSRHTELKEKLRSINQGLDRLRRVSHQGYSTEAEFEEPRVIDLWDLAQSANLTDKELEAFREELKHFEAKIEKHNHYQKQLEIAHEKLRHAESVGDGERVSRSREKHALLEGRTKELGYTVKKHLQDLSGRISRARHNELTGGSGGNSAPLERKSSVECPPCPAPPVAGPSVFLFPPKPKDTLMISRTPEVTCVVVDVSHEDPEVQFNWYVDGVEVHNAKTKPREEQFNSTFRVVSVLTVVHQDWLNGKEYKCKVSNKGLPAPIEKTISKTKGQPREPQVYTLPPSREEMTKNQVSLTCLVKGFYPSDIAVEWESNGQPENNYKTTPPMLDSDGSFFLYSKLTVDKSRWQQGNVFSCSVMHEALHNHYTQKSLSLSPGARTGGGGSGGGGSSTRKQNYMMNFSRQHGLRRFYNRRRRSLRRYP
With B1 the “pTau S396 fluorescence intensity” value [1] was “decreased levels of pTau S396 signaling”, the “efficacy at RELN signaling (pDAB1) relative to comparators” value ([2]; 5 minutes treatment) was “more effective than controls” and the pDAB1 levels ([2]; 5 minutes, 4 ug/mL recombinant protein) was “increased pDAB1 levels”. The “pDAB1 levels in the hippocampus” value [3] was “increased” and the “pDAB1 levels in the midbrain” value [3] was “increased”.
